For two substances, reduction of binding against wild-type p27Xic1 and increase of binding against wild-type p27Xic1 results are on record in paper PMC4262734.

The experiment addresses HA-Cdk2 (UniProt P24941). Kind of experiment: co-IP; HeLa cells co-overexpressing wild-type or mutant Flag-p27Xic1 with HA-Cdk2; binding quantified against wild type (mean ± SEM).

The substance Flag-p27Xic1 T68E (natural protein) had a reduction of binding against wild-type p27Xic1 of 50%.

Consider Flag-p27Xic1 T68A (natural protein), for which the increase of binding against wild-type p27Xic1 is 140%.
